Here are results for two molecules from patent US20170088624A1 (Janssen / Centocor, published 2017).

Assay [1] addresses T1, Full length human CD40 (huCD40) on cells (human, UniProt P25942 21-277). Description: cell-based or functional assay.
The target in assay [2] is T1, Full length human CD40 (huCD40) on cells. Briefly: cell-based or functional assay. The source holds these as a separate data set.
The target is the same in assay [3]. Briefly: flow cytometry, Raji cells.
In assay [4] the target is T2, Macaca fascicularis (cyno) CD40 (cCD40) on cells (Macaca fascicularis (cynomolgus), UniProt P25942 21-277 (human entry)).
T2 construct: CD40 on cyno mature DCs
T2 chain: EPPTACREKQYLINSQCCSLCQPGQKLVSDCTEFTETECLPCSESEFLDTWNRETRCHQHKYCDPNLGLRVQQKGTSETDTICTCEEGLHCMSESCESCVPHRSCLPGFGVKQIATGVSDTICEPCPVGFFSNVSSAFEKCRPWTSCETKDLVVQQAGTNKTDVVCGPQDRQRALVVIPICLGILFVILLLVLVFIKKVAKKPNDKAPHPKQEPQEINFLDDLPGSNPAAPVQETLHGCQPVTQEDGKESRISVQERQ
Briefly: flow cytometry, cyno mature DCs. The procedure:
(§1) Human monocytes were isolated from either frozen/fresh PBMC using CD14 negative isolation kit per manufacturer's protocol (MACS Miltenyi). Cyno monocytes were isolated from fresh PBMC using CD14 positive isolation kit per manufacturer's protocol (MACS Miltenyi). To generate DCs, monocytes were cultured for 5 days in complete media RPMI (Invitrogen) in the presence of 100 ng/ml human GM-CSF and human IL-4 (Peprotech) and media was replenished every 2 days. On day 5, DCs were stimulated with 100 ng/ml LPS (Sigma) for 24 hours. Cells were then stained with each of the tested CD40 antibody at different concentration in flow cytometry buffer (PBS+1% FBS; BD Bioscience) in 100 μl volume for 30 minutes on ice followed with two washes with flow buffer. Cells were then stained for additional 30 minutes on ice with APC-conjugated anti human IgG (Jackson ImmunoResearch) at the recommended dilution 1:100 and washed twice with flow buffer. Cells were analyzed for percent positive and Mean Fluorescence Intensity (MFI) to determine the antibody binding using Fortessa (BD Bioscience).
(§2) The experiments were conducted using assays described above. 20 antibodies were characterized further based on their binding to human DCs, cyno DCs, Raji cells and HEK-Blue™ CD40L cells.

Assay [5] concerns the target T1, Full length human CD40 (huCD40) on cells. Briefly: flow cytometry, human mature DCs. The method, then:
as §1, §2

Assay [6] has the same target. Briefly: flow cytometry, HEK-Blue CD40L cells.
Assay [7] concerns the target T3, human CD40 (SPR analyte) (human, UniProt P25942 21-193).
T3 construct: also called huCD40-ECD
Description: SPR ProteOn XPR36, mAb captured, CD40 as analyte, 25 C; lower end of the range of n = 2. The method, then:
(§3) Affinity measurements were performed using Surface Plasmon Resonance (SPR) using a ProteOn XPR36 system (BioRad). […] Approximately 5000 RU (response units) of mAbs were immobilized. The kinetic experiments were performed at 25° C. in running buffer (DPBS+0.01% P20+100 μg/ml BSA). To perform kinetic experiments, 200 RU of mAbs were captured followed by injections of analytes (human or cyno CD40) at 5 concentrations (in a 4-fold serial dilution). The association phase was monitored for 3 minutes at 50 μL/min, then followed by 15 minutes of buffer flow (dissociation phase). The chip surface was regenerated with two 18 second pulses of 100 mM H₃PO₄ (Sigma, Cat#7961) at 100 μL/min.
(§4) The collected data were processed using ProteOn Manager software. First, the data was corrected for background using inter-spots. Then, double reference subtraction of the data was performed by using the buffer injection for analyte injections. The kinetic analysis of the data was performed using a Langmuir 1:1 binding model. The result for each mAb was reported in the format of Ka (On-rate), Kd (Off-rate) and KD (equilibrium dissociation constant).
(§5) The parameters reported in this table were obtained from a 1:1 Langmuir binding model for all samples. Affinity, KD=kd/ka.

Assay [8] concerns the target T3, human CD40 (SPR analyte). Briefly: SPR ProteOn XPR36, mAb captured, CD40 as analyte, 25 C; upper end of the range of n = 2. The procedure:
as §3, §4, §5

Assay [9] has as its target T4, cyno CD40 (SPR analyte) (Macaca fascicularis (cynomolgus), UniProt P25942 21-193 (human entry), limits assumed).
T4 construct: also called cCD40-ECD
T4 chain: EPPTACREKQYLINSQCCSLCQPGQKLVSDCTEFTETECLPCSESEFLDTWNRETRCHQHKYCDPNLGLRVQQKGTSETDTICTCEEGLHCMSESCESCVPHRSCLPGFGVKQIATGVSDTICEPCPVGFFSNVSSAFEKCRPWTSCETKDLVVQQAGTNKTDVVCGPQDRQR
Description: SPR ProteOn XPR36, mAb captured, cyno CD40 as analyte, 25 C; did not fit well to 1:1 model. The procedure:
as §3, §4, §5

For assay [10], the target named is T3, human CD40 (SPR analyte). Description: SPR ProteOn XPR36, mAb captured, CD40 as analyte, 25 C; average of n = 2; did not fit well to 1:1 model. The method, then:
as §3, §4, §5

For assay [11], the target named is T3, human CD40 (SPR analyte). Description: SPR ProteOn XPR36, mAb captured, CD40 as analyte, 25 C; lower end of the range of n = 2; lower end of the range of the n = 2 replicates. The procedure: as §3, §4, §5
For assay [12], the target named is T3, human CD40 (SPR analyte). Briefly: SPR ProteOn XPR36, mAb captured, CD40 as analyte, 25 C; upper end of the range of n = 2; upper end of the range of the n = 2 replicates. The method, then: as §3, §4, §5
Assay [13] has as its target T1, Full length human CD40 (huCD40) on cells. Description: cell-based or functional assay. This is another data set of the same source.
Target sequence in this assay (P25942 21-277): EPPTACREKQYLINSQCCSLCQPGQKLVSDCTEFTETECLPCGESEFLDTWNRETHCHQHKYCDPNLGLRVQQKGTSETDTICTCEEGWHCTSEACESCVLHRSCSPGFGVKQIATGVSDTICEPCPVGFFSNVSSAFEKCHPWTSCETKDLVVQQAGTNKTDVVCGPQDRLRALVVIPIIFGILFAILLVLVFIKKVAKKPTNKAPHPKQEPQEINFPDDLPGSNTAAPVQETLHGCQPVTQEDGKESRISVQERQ
Assay [14] has the same target. Description: flow cytometry, human DCs; separate experiment.
Target sequence in this assay (P25942 21-277): as above
Assay [15] shares this target. Briefly: flow cytometry, human B cells; separate experiment.
Target sequence in this assay (P25942 21-277): as above
The target is the same in assay [16]. Description: flow cytometry, HEK-Blue CD40L cells; separate experiment.
Target sequence in this assay (P25942 21-277): as above

B1: C40M55 (antibody, human IgG1, kappa, V domains shown)
VH: QVQLVQSGAEVKKPGSSVKVSCKASGGTFSSYAISWVRQAPGQGLEWMGGIIPIFGTANYAQKFQGRVTITADESTSTAYMELSSLRSEDTAVYYCARDGYRRYGIGRYGFDYWGQGTLVTVSS
VL: not shown
notes: Full-length IgG1/kappa; from phage display
Turning to B1, in assay [1], the “B cells EC50, CD23 surface expression, with cross-linker” value was 0.0616 µg/mL; the “B cells EC50, CD80 surface expression, with cross-linker” value stood at 0.00143 µg/mL; the “B cells EC50, CD83 surface expression, with cross-linker” value came out at 0.00125 µg/mL; the “B cells EC50, CD86 surface expression, with cross-linker” value stood at 0.000646 µg/mL. Further, the “B cells EC50, HLA-DR surface expression, with cross-linker” value in assay [1] turned out to be 0.000437 µg/mL. In assay [2], the “DC EC50, CD80 surface expression, with cross-linker” value is 0.0616 µg/mL; the “DC EC50, CD83 surface expression, with cross-linker” value was 0.103 µg/mL; the “DC EC50, CD86 surface expression, with cross-linker” value was 0.198 µg/mL; the “DC EC50, HLA-DR surface expression, with cross-linker” value was found to be 0.0811 µg/mL. In [3], a half-maximal response (EC50) required 0.0461 µg/mL. This molecule yielded an EC50 in assay [4] of 0.0218 µg/mL. In assay [5], this molecule yielded an EC50 of 0.102 µg/mL. Moreover, in assay [6], the midpoint of the response, the EC50, lay at 0.0631 µg/mL. The Kd in [7] was 2.12 nM. Also, binding in assay [8] was characterised by a dissociation constant (Kd) of 2.17 nM. In addition, in assay [9], binding was characterised by a dissociation constant (Kd) of 2.59 nM, the koff is 0.00215 s⁻¹ and the kon was 831000 M⁻¹ s⁻¹. In assay [10], the Kd was 2.15 nM, the koff was 0.00203 s⁻¹ and the on-rate constant (kon) stood at 944000 M⁻¹ s⁻¹. In [11], this molecule came in with a koff of 0.00188 s⁻¹ and a kon of 868000 M⁻¹ s⁻¹. Further, in [12], the koff came out at 0.00217 s⁻¹ and the kon was determined as 1.02e+06 M⁻¹ s⁻¹.

B2: C40M121 (antibody, human IgG1, lambda, V domains shown)
VH: QLQLQESGPGLVKPSETLSLTCTVSGGSISSSSYYWGWIRQPPGKGLEWIGNIYYRGDTYYSPSLKSRVTISVDTSKNQFSLKLSSVTAADTAVYYCAKGFRFDYWGQGTLVTVSS
VL: QSALTQPPSASGSPGQSVTISCTGTSSDVGGYNYVSWYQQHPGKAPKLMIYEVSKRPSGVPDRFSGSKSGNTASLTVSGLQAEDEADYYCSSYAGSNNLVFGGGTKLTVLG
As for B2, in assay [13], the “EC50, Human B cells (CD83), separate experiment” value came to 0.000334 µg/mL; the “EC50, Human DC (HLA-DR), separate experiment” value came out at 0.0185 µg/mL; the “EC50, agonistic activity on HEK-Blue™ CD40L cells (NF-κB/SEAP), separate experiment” value was 0.00633 µg/mL. In assay [14], the response was half-maximal at 0.0572 µg/mL (EC50). Also, it took 0.0228 µg/mL to reach a half-maximal effect in assay [15] (EC50). In [16], the EC50 stood at 0.464 µg/mL.
